The text below walks through data of patent US20260116984A1 (ENTHERA S R L, published 2026).

Experiment [1] concerns the target TMEM219 on human beta cells (Betalox-5) and human islets (human) (UniProt Q86XT9). Briefly: cell-based or functional assay.
Experiment [2] concerns the target T1, Human Ecto-TMEM219 (human, UniProt Q86XT9 43-204).
T1 construct: also called hEcto-TMEM
T1 sequence: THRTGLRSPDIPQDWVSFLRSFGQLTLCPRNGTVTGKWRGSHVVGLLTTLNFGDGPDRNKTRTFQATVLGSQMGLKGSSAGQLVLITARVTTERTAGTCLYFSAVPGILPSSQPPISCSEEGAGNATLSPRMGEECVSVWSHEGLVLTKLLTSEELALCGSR
The experiment is described as follows: ELISA, ectoTMEM coated at 5 µg/ml, antibody dilution series, anti-human-Fc HRP detection. On the procedure:
The binding activity of the purified IgG4 (TC03, TC04, TC05) to the recombinant ectoTMEM protein was measured by ELISA. In brief, ectoTMEM was diluted in PBS to 5 μg/ml and coated onto 96-well ELISA plates (100 μl/well) for 1 h at RT. After blocking and washing of the plates, an antibody dilution series was added to the plates and incubated for 1 h at RT. After washing of the plates, bound antibodies were detected via a secondary anti-human-Fc HRP-conjugated antibody. After another washing step, TMB reaction was performed, stopped with sulfuric acid and absorbance was measured. Based on the absorbance readings, an EC50 of the saturating antibodies was calculated.
On the technique in general: An ELISA detects its analyte on a solid surface through an enzyme-linked reagent.

Experiment [3] has as its target T1, Human Ecto-TMEM219. The experiment is described as follows: Octet BLI, antibody captured via Fc on biosensor, antigen at 150 nM. The protocol: (§1) The binding affinity measurements were performed using an Octet instrument (Octet BMIA), which is a Biolayer Interferometry (BLI) platform based on Biomolecular Interaction Analysis. To establish the assay, the target monoclonal antibody (30 μg/ml in PBS) was immobilized via Fc on the Anti-Mouse IgG Fc Capture (AMC) or Anti-Human IgG Fc Capture (AMC) biosensors and the interaction with the antigen, human and murine Ecto-TMEM219 (Genescript's customized protein service) at 150 nM was measured.
A general note: BLI is a label-free optical method that tracks binding on a fibre tip over time.

A further experiment has as its target T2, Murine Ecto-TMEM219 (murine, UniProt Q9D123 43-203).
T2 construct: also called mEcto-TMEM
T2 sequence: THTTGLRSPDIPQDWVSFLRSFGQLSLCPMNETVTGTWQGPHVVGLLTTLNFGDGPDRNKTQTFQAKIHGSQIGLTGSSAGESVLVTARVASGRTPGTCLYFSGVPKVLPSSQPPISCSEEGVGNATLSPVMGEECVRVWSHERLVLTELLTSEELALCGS
Described as above. The protocol:
as §1

Substitutions are numbered along the chain they refer to.

TMEM219 on human beta cells (Betalox-5) and human islets (human), sequence (Q86XT9 39-240): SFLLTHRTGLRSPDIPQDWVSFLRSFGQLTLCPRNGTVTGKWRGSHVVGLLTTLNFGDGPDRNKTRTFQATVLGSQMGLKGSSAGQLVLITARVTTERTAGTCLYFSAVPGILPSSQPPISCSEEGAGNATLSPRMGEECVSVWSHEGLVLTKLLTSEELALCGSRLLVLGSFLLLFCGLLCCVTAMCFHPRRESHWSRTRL

In experiment [1], “Recombinant human IGFBP3 (from UniProt P17936 28-291) (ligand)” gave a CASP8 mRNA upregulation in beta cells cultured with IGFBP3 of 70% and a cell death of beta cells challenged with IGFBP3 of 30%.

B1: TC05 (antibody, human IgG4, V domains shown)
VH: QIQLVQSGAEVKQPGASVSVSCAASGYTFTSYGISWVRQAPGQGLEWMGWISAYNGNTNYAQKLQGRVTMTTDTSTSTAYMELSSLRSDDTAVYYCARWGRWLAHDYWGQGTLVTVSS
VL: QAVLTQPPSVSVSPGQTASITCSGDKLGNKNAYWYQQKPGQSPVLVMYQSTRRPSGIPERFSASNSGNTATLTISGTQAMDEADYYCQAWDSSSGWEVFGGGTKLTVL
In general, EC50 refers to the concentration giving half of the maximal effect. As to B1, the response in the experiment with Human Ecto-TMEM219 [2] was half-maximal at 0.0791 µg/mL (EC50).

B2: TC03 (antibody, human IgG4, V domains shown)
VH: B1 VH
VL: B1 VL with D91L
As for B2, the EC50 with Human Ecto-TMEM219 [2] was found to be 0.0647 µg/mL.

B3: TC01 (antibody, V domains shown)
VH: B1 VH with Q13K, S19K, A23K, S84R
VL: B1 VL
notes: also called anti-TMEM219 TC01; TCO1
The Kd is a measure of binding affinity in units of concentration. A high value points to a looser complex. With B3, the Kd with Human Ecto-TMEM219 [3] is 20 nM; with Murine Ecto-TMEM219, 30 nM.

B4: TC04 (antibody, human IgG4, V domains shown)
VH: B1 VH
VL: B1 VL with M80E
As for B4, the EC50 with Human Ecto-TMEM219 [2] amounted to 0.0898 µg/mL.

B5: TM1 (antibody, V domains shown)
VH: QVQLVESGGGVVQPGRSLRLSCAASGFTFSTYGIHWVRQAPGKGLEWVAVIWYDGYNKYYVDSVKGRFTISRDNSENTVYLQMNSLRTEDTAVYYCAREGWFGKLLSALDIWGQGTMVTVSS
VL: VIQMTQSPSSLSASVGDRVTITCRASQGIRNDLGWYLQKPGKAPELLIYPASSLQSGVPSRFSGSGSGTDFTLTISSLQPEDFATYYCLQDYNYPFTFGQGTKLEIK
notes: constant regions are not tied to it; also called anti-TMEM219 TM1
For the molecule B5, the Kd with Human Ecto-TMEM219 [3] and with Murine Ecto-TMEM219 was less than 0.001 nM in each case.

B6: TE10 (antibody, V domains shown)
VH: QVQLVESGGGVVQPGRSLRLSCAASGFTFSSYGMHWVRQAPGKGLEWVAVIWYDGSNKYYADSVKGRFTISRDNSKNTLYLQMNSLRAEDTAVYYCAREGRGMDVWGQGTTVTVSS
VL: QPVLTQSSSASASLGSSVKLTCTLSSGHSSYIIAWHQQQPGKAPRYLMKLEGSGSYNKGSGVPDRFSGSSSGADRYLTISNLQFEDEADYYCETWDSNTPHAVFGGGTQLTAL
B6 gave a Kd with Human Ecto-TMEM219 [3] of less than 0.001 nM.
